Results reported in publication doi:10.1101/2023.03.24.534125 (bioRxiv, 2023).

Target: T1, CRISPR array binding protein 1, Cbp1 (S. solfataricus P2, SSO0454) (S. solfataricus P2, UniProt Q97ZW9 1-150)
T1 sequence (looked up): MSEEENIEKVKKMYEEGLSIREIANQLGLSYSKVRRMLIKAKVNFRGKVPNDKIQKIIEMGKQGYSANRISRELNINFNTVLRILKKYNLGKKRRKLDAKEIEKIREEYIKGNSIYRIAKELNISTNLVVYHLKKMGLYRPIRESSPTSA
Test: native gel or EMSA

B1: Cren7 (S. solfataricus, SSO6901) (natural protein, UniProt Q97ZE3 1-60, looked up)
chain: MSSGKKPVKVKTPAGKEAELVPEKVWALAPKGRKGVKIGLFKDPETGKYFRHKLPDDYPI
stoichiometry N: 2
